Results: the nanobody polyreactivity screen of Harvey et al. (2022)

Assay: yeast display, Sf9 membrane polyspecificity reagent, FACS + sequencing; frameworks hold sequencing errors
Summary of the method: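 Nanobodies from a synthetic yeast display library (Saccharomyces cerevisiae BJ5465), induced 36–48 hours with galactose, were stained 1 hour at 4 °C with 10% biotinylated, detergent-solubilized Sf9 membrane reagent, enriched on streptavidin microbeads, then FACS-sorted. Anti-HA (expression) and streptavidin (reagent binding) fluorescence set low and high (top ~1%) gates. Polyreactivity labels come from the gate of origin. Genes were colony-PCR amplified, MiSeq 2 × 250 sequenced and filtered by CDR length.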

| Sequence | polyreactivity (PSR sort gate) |
| --- | --- |
| QVQLQESGGGLVQAGGSLRLSCAASCTISQEDWIGWYRQAPGKEREFVAAIGLGSNTNYADSLKGRFTISRDNAKNTVYLQMNSLKPEDTAVYYCAVSVWQYSDHVYRGQGTQVTVSS | low polyreactivity |
| QVQLVESGGGLVQAGGSLRLSCAASGFTISPYAMGWYRQAPGKERELVAVISKSSTRTYYADSVKGRFTISRDTAKNTVYLQMNSLKPEDTAVYYCNAGWNFVSGYYYWGQGTQVTVSS | high polyreactivity |
| QVQLVESGGGLVQAGGSLRLSCAASGGTFWYYAMGWDRQAPGKERELVAAINWSGDSTYADSVKGRFTISRDNAKNTVYLQMNSLKPEDTAVYYCNADVWYYRMDYWGQGTQVTVSS | low polyreactivity |
| QVQLVESGGGLVQAGGSLRLSCAASGSTFKYNTMGWYRQAPGKERELVATISTGGSTYYADSVKGRFTISRDNAKNTVYLQMNSLKPEDTAVYYCAADGARRNTYRYDYWGQGTQVTVSS | low polyreactivity |
| PVQLVESGGGLVQAGGSLRLSCAACGSIIAGYAMGWYRQAPGKERELVAAISWSGGGTYYADSVKGRFTISRDNAKNTVYLQMNSLKPEDTAVYYCNAYGYRHRGNGYWGQGTQVTVSS | high polyreactivity |
| QVQLVESGGGLVQAGGSLRLSCAASGSTFSFYAMGRYRQAPGKERELVAAISSSGDGTYYADSVKGRFTISRDNAKKTVYLQMNSLKPEDTAVYYCATGSPSGDEWGMDYWGQGTQVTVSS | low polyreactivity |
| QVQLVESGGGLVQAGGSLRLSCAASGRIFYPYAMGWYRQAPGKERELVASITSGGGTYYADSVKGRFTISRDNAKNTVYLQMNSLKPEDTAVYYCAAKYYTSWIRYDYWGQGTQVTVSS | low polyreactivity |
| QVQLVESGGGLVQAGGSLRLSCAASGSIFGVYVMGWYRQAPGKERELVAAITRGASTNYADSVKGRFTISRDNAKNTVYLQMNSLKPEDTAVYYCAARQVSVSGHQYGYWGQGTQVTVSS | low polyreactivity |
| QVQLVESGGGLVQAGGSLRLSCAASGSTLYLNAMGWYRQAPGKERELDASISNGVNTNYADSVKGRFTISRDNAKNTVYLLMNSLKPEDTAVYYCAKEKRFQKTVHRKPAYDYWGQGTQVTVSS | low polyreactivity |
| QVQLVETGGGLVQAGGSLRLSCAASGITFPYYAMGWYRQAPGKERELVDAITIRSGRTYYADSVKGRFTISRDNAKNTFYLQMNSLIPEDTAVYYCAARLSNTYGYWGQGTQVTVSS | high polyreactivity |
| QVQLVESGGGLVQAGGSLRLSCAASGSIFRSYAMGWYRQAPGKERELVAAISRRGSSTYYADSVKGRFTISRDNAKNTVYLQMNSLKPEDTAVYYCAADRVVPRGRYGGDYWGQGTQVTVSS | high polyreactivity |
| QVQLVESGGCLVQAGGSLRLSCAASGFTFGRNYMGWYRQAPGKEREFVASISGSGGRTYYADSVKGRFTISRDNAKNTVYLQMNSLQPEDTAVYYCAAYRYSAYLYWDEYGGQGTQVTVSS | high polyreactivity |
| QVQLVESGGGLVQTGGSLRLSCAASGRILYTNAMGWYRQAPGKERELVAAISSGGRTTYADSVKGRFTISRDNAKNTVYLQMNSLKPEDTAVYYCAAGIRIYGTKRSRGYGYWGQGTQVTVSS | high polyreactivity |
| QVQLVESGGGLVQAGGRLRLSCAASGRTFGVYAMGWYRQSPGKEREFVGVISWSDDSTYYADSVKGRFTISRDNAKNTVYLQMNSLKPEDTAVYYCNADDYLVYSGSHYGYWGQGTQVTVSS | low polyreactivity |
| QVQLVESAGVLVQAGGRLRLICAACGSIFDYYSLGWYRQAPGKEREMVDTISGGGGTTYYADSVKGRFTISRDNAKNSVYVHMNSLKPEDTAVYYCAADSLGYKYWGQGTQVTVSS | low polyreactivity |
| QVQLVESGGGLVQAGGSLRLSCAASGIIFSQYAMGWYRQAPGKERELVAGITRSGGSTYYADSVKGRFTISRDNAKNTVYLQMNSLKPEDTAVYYCAAVQRYEYGYWGQGTQVTVSS | high polyreactivity |
